Assay results taken from paper PMC3192115, “Analysis of RNA Binding by the Dengue Virus NS5 RNA Capping Enzyme”.
Several values for one entry are separate records, joined by “and”; a condition that tells them apart may be missing. Equal entries are not always repeated.

Legend:
[1] = target: T1, NS5 capping enzyme WT (West Nile) (West Nile virus) (UniProt Q9Q6P4); test: fluorescence polarization; conditions: 5' diphosphate
T1 sequence: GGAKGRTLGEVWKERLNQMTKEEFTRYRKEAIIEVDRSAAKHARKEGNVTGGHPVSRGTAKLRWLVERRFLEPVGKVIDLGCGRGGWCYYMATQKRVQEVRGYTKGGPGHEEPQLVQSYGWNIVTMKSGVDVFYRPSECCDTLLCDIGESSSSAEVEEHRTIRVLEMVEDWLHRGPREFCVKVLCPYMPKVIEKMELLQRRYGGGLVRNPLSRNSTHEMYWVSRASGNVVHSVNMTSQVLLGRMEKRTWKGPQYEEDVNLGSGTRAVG

[2] = target: NS5 capping enzyme WT (yellow fever) (Yellow fever virus, UniProt P03314 2507-2774); test: fluorescence polarization; conditions: protein: recombinant; label: 3' FAM
[3] = target: T2, NS5 N-terminal capping enzyme WT (dengue 2) (Dengue virus type 2, UniProt P29990 2492-2758); test: fluorescence polarization; conditions: protein: recombinant; tags: His; label: 3' FAM
[4] = target: T2, NS5 N-terminal capping enzyme WT …; test: fluorescence polarization; Table 1 gives 3.7 uM, SD 217 nM; conditions: protein: recombinant; tags: His; label: 3' FAM
[5] = target: T2, NS5 N-terminal capping enzyme WT …; test: fluorescence polarization; mock control for GTP experiment; conditions: protein: recombinant; tags: His; label: 3' FAM

T2 sequence (P29990 2492-2758): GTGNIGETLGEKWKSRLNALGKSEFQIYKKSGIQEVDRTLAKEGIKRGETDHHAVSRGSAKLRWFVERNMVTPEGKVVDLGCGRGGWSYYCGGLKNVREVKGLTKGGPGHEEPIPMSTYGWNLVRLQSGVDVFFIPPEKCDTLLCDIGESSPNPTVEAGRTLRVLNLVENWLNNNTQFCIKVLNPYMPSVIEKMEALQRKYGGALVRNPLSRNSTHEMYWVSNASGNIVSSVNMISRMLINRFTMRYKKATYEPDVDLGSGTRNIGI
Chain of NS5 capping enzyme WT (yellow fever) (P03314 2507-2774): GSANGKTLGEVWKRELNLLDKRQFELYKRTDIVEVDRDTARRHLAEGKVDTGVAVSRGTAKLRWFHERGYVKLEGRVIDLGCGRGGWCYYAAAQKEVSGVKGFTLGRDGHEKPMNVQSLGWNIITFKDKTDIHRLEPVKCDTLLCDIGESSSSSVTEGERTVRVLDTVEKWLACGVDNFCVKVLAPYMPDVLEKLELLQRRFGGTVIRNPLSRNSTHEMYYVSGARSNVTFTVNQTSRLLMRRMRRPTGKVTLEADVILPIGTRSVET

## AGUAA [ppAGUAA-FAM]
[1]
  Kd: 136 nM

## AGUAA (ssRNA, 5' diphosphate) [ppAGUAA-FAM]
[2]
  Kd: 420 ± 20 nM
[3]
  Kd: 187 nM and ~200 nM

## AGUAA (ssRNA, 5' monophosphate) [pAGUAA-FAM]
[3]
  Kd: 967 ± 88 nM

## AGUAA (ssRNA, no 5' phosphate) [AGUAA-FAM]
[4]
  Kd: 3800 ± 200 nM
[5]
  Kd: 3500 nM
